Experimental findings from patent publication US20220411536A1 (NUMAB THERAPEUTICS, published 2022) are described below.

In test [1] the target is CD3e on Jurkat PD-1 NFAT reporter T cells or on T cells of human PBMCs (human, UniProt P07766 23-207). Put plainly: cell-based or functional assay.
The target in test [2] is T1, recombinant human IL-23R (custom-made by Trenzyme) (human, UniProt Q5VWK5 24-355).
T1 sequence (looked up): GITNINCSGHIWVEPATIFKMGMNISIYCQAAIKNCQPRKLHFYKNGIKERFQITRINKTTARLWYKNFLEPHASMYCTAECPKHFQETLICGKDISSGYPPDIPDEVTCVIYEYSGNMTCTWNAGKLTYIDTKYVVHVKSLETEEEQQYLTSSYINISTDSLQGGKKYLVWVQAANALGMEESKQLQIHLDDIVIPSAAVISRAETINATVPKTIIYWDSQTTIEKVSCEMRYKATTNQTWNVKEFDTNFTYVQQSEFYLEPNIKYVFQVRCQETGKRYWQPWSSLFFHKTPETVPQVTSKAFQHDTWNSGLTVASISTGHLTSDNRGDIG
Kind of test: SPR, immobilised IL-23R.

For test [3], the target named is T2, recombinant human Her2 ECD (SinoBiological, cat. 10004-HCCH) (human, UniProt P04626 23-652).
T2 construct: extracellular domain; bought protein
Kind of test: SPR, immobilised Her2 ECD.

A further test concerns the target T3, human serum albumin (human, UniProt P02768 25-609).
T3 construct: also called HSA; human SA
Put plainly: SPR, immobilised HSA, pH 5.5.

In a further test the target is T4, mouse serum albumin (mouse, UniProt P07724 25-608).
T4 construct: also called MSA; mouse SA
Kind of test: SPR, immobilised MSA, pH 5.5.

Test [4] concerns the target T5, Fc-tagged human PD-L1 extracellular domain (SinoBiological, cat. 10084-H02H) (human, UniProt Q9NZQ7 19-238).
T5 construct: extracellular domain; also called hPD-L1; not shown: Fc tag of the bought protein
Put plainly: SPR, captured Fc-PD-L1 ECD, kinetic.

Test [5] concerns the target T5, Fc-tagged human PD-L1 extracellular …. Put plainly: SPR, captured Fc-PD-L1 ECD, steady state.
In test [6] the target is T6, recombinant human CD3E ECD (SinoBiological, cat. 10977-H08H) (human, UniProt P07766 23-126).
T6 construct: extracellular domain; bought protein; also called CD3s
Put plainly: SPR, immobilised CD3e ECD, two-state model.

Test [7] deals with T7, human PD-L1 expressed on cells (CHO-PD-L1, HCC1954, HCC827) (human, UniProt Q9NZQ7 19-290).
T7 construct: whole, on cells; also called hPD-L1; PD-L1 expressing cells
Put plainly: flow cytometry, inhibition of biotinylated PD-1 binding to HCC827 cells.

Test [8] concerns the target T7, human PD-L1 expressed on cells …. Kind of test: flow cytometry, inhibition of biotinylated PD-1 binding to HCC1954 cells.
Test [9] has as its target T6, recombinant human CD3E ECD …. Put plainly: SPR, immobilised CD3e ECD, two-state model; overall KD of the two-state fit.
Test [10] has the same target. Put plainly: SPR, immobilised CD3e ECD, two-state model (ka1); ka1, first step of the two-state fit.
Test [11] has the same target. Put plainly: SPR, immobilised CD3e ECD, two-state model (kd1); kd1, first step of the two-state fit.
The target of test [12] is T7, human PD-L1 expressed on cells …. Put plainly: cell-based or functional assay.
The target is the same in test [13]. Kind of test: flow cytometry, CHO-PD-L1 cells.
The target of test [14] is T5, Fc-tagged human PD-L1 extracellular …. Put plainly: SPR, captured Fc-PD-L1 ECD, scFv analyte, kinetic.
Test [15] shares this target. Kind of test: SPR, alanine mutants of 33-03-G02.

Positions count from the first letter of the chain named. In names and notes the source's numbering stands.

T4 sequence (P07724 25-608 limits assumed): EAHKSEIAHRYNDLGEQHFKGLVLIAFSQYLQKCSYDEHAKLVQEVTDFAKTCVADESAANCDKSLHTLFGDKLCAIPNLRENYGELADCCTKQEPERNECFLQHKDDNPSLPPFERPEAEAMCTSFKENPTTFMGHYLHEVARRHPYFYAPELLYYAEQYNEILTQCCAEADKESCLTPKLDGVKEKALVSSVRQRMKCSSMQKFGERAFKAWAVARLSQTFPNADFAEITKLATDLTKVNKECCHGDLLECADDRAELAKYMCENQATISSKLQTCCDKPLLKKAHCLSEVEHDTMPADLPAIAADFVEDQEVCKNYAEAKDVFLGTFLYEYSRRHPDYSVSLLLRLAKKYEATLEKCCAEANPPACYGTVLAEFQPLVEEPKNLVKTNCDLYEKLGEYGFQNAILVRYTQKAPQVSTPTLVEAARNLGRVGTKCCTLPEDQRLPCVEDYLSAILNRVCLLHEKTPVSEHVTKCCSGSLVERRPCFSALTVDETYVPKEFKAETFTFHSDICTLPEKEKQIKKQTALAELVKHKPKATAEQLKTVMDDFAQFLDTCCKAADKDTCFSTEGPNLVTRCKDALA
T6 sequence (P07766 23-126): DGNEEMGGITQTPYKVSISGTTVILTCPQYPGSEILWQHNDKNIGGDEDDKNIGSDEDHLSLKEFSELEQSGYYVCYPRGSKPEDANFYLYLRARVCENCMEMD

B1: PRO1545 (multispecific antibody)
chain 1: DIQMTQSPSSLSASVGDRVTITCQASQSINDYLAWYQQKPGKAPKLLIYKASTLASGVPSRFSGSGSGTDFTLTISSLQPEDFATYYCQAAYIITDIDNVFGTGTKVTVLGGGGGSGGGGSGGGGSGGGGSQVQLQESGPGLVKPSETLSLTCKVSGFSFSSGYDMCWIRQPPGKGLEWIGCVVAGSVDITYYASWAKGRVTISVDSSKNQFSLKLSSVTAADTAVYYCARKDAYSDAFNLWGQGTLVTVSSGGGGSGGGGSDVVMTQSPSSLSASVGDRVTITCQASQIISSRSAWYQQKPGQPPKLLIYQASKLASGVPSRFSGSGSGTDFTLTISSLQPEDFATYYCQCTYIDSNFGAFGCGTKLTVLGGGSGGSDIQMTQSPSSLSASVGDRVTITCQSSQSVFSNNYLAWFQQKPGQSPKRLIYSASTLASGVPSRFSGSGSGTDFTLTISSLQPEDFATYYCLGSYACSSADCYVFGTGTKVTVLG
chain 2: DIQMTQSPSSLSASVGDRVTITCQASENIYSFLAWYQQKPGKAPKLLIYSASKLAAGVPSRFSGSGSGTDFTLTISSLQPEDFATYYCQQTNRYSNPDIYNVFGTGTKVTVLGGGGGSGGGGSGGGGSGGGGSEVQLVESGGGLVQPGGSLRLSCAASGIDFNSNYYMCWVRQAPGKGLEWIGCIYVGSHVNTYYANWAKGRFTISRDNSKNTVYLQMNSLRAEDTAVYYCATSGSSVLYFKFWGQGTLVTVSSGGGGSGGGGSEVQLVESGGGLVQPGGSLRLSCAASGFSLSSYDMSWVRQAPGKGLAWIGASYASGPTYYASWAKGRFTISRDNSKNTVYLQMNSLRAEDTATYFCARGGWTGTSHSNIWGQGTLVTVSSGGGSGGGSEVQLVESGGGLVQPGGSLRLSCAASGFSFSSSYWICWVRQAPGKCLEWVGCVFTGDGTTYYASWAKGRFTISRDNSKNTVYLQMNSLRAEDTATYFCARPVSVYYYGMDLWGQGTLVTVSS
For the molecule B1, in test [1], the “IC50, NFAT reporter, CHO-PD-L1 (A2 clone) cells” value was 26 nM. Moreover, in test [1], the “IC50, NFAT reporter, HCC1954 cells” value turned out to be 12.2 nM. Further, in [1], the “rel. max. activation vs PRO1497, NFAT reporter, HCC1954 cells” value turned out to be 67%. Also, the “rel. max. activation vs PRO1497 on HCC1954, NFAT reporter, CHO-PD-L1 (A2 clone) cells” value in test [1] was 59%. The dissociation constant Kd is 1.52 nM in test [2]; 0.693 nM with human serum albumin; 15.9 nM in the test with mouse serum albumin; 1130 nM in [4]; 879 nM in [5]; 16.7 nM in test [9]. For the same molecule, the koff was determined as 0.000471 s⁻¹ in [2]; 0.000119 s⁻¹ with human serum albumin; 0.00108 s⁻¹ with mouse serum albumin; 0.0022 s⁻¹ in test [4]; 0.00645 s⁻¹ in test [11]. Moreover, the kon in test [2] stood at 309000 M⁻¹ s⁻¹; with human serum albumin, 171000 M⁻¹ s⁻¹; with mouse serum albumin, 67900 M⁻¹ s⁻¹; in test [4] it was 1950 M⁻¹ s⁻¹; in test [10], 169000 M⁻¹ s⁻¹. In [3], the binding result is “no binding (tested: 90 nM highest concentration)”. Further, the KD1 in test [6] worked out at 38.2 nM. Further, the kd2 in [6] was 0.00432 s⁻¹. Also, the IC50 is 88.1 µg/mL in [7] and 4.14 µg/mL in [8].

B2: PRO830 (scFv, V domains shown)
VH: QVQLQESGPGLVKPSETLSLTCKVSGFSFSSGYDMCWIRQPPGKGLEWIGCVVAGSVDITYYASWAKGRVTISVDSSKNQFSLKLSSVTAADTAVYYCARKDAYSDAFNLWGQGTLVTVSS
VL: DIQMTQSPSSLSASVGDRVTITCQASQSINDYLAWYQQKPGKAPKLLIYKASTLASGVPSRFSGSGSGTDFTLTISSLQPEDFATYYCQQGYIITDIDNVFGTGTKVTVLG
notes: also called 33-03-G02; parental scFv
B2: the “IC50, neutralization of PD-L1 in NF-AT potency assay” value (shortened to “IC50, neutralization of PD-L1”) in test [12] is 0.0204 µg/mL. Also, in [13], the EC50 was 0.0055 µg/mL. In [14], this molecule registered a Kd of 0.0781 nM, a koff of 0.000139 s⁻¹ and a kon of 1.78e+06 M⁻¹ s⁻¹.

B3: PRO1075 (scFv, V domains shown)
VH: B2 VH
VL: B2 VL with Q90A
notes: also called 33-03-G02 VL-Q108A
On to B3, for which the “IC50, neutralization of PD-L1” value in test [12] was determined as 0.828 µg/mL. The “fold reduction of affinity vs the original domain” value in [15] was over 100 fold. The molecule also yielded an EC50 in [13] of 333 µg/mL. In test [14], this molecule returned a Kd of 12.2 nM, a koff of 0.0205 s⁻¹ and an on-rate constant (kon) of 1.67e+06 M⁻¹ s⁻¹.

B4: PRO1089 (scFv, V domains shown)
VH: B2 VH with Y104A
VL: B2 VL
notes: also called 33-03-G02 VH-Y112A
For the molecule B4, the “IC50, neutralization of PD-L1” value in [12] worked out at 1.28 µg/mL. Besides, the “fold reduction of affinity vs the original domain” value in test [15] is over 100 fold. Further, the EC50 in test [13] came out at 51.2 µg/mL. For the same molecule, in [14], the affinity, expressed as Kd, was 16.5 nM; the koff is 0.0328 s⁻¹; the kon was found to be 1.99e+06 M⁻¹ s⁻¹.

B5: PRO1546 (multispecific antibody)
chain 1: DIQMTQSPSSLSASVGDRVTITCQASENIYSFLAWYQQKPGKAPKLLIYSASKLAAGVPSRFSGSGSGTDFTLTISSLQPEDFATYYCQQTNRYSNPDIYNVFGTGTKVTVLGGGGGSGGGGSGGGGSGGGGSEVQLVESGGGLVQPGGSLRLSCAASGIDFNSNYYMCWVRQAPGKGLEWIGCIYVGSHVNTYYANWAKGRFTISRDNSKNTVYLQMNSLRAEDTAVYYCATSGSSVLYFKFWGQGTLVTVSSGGGGSGGGGSDVVMTQSPSSLSASVGDRVTITCQASQIISSRSAWYQQKPGQPPKLLIYQASKLASGVPSRFSGSGSGTDFTLTISSLQPEDFATYYCQCTYIDSNFGAFGCGTKLTVLGGGSGGSDIQMTQSPSSLSASVGDRVTITCQSSQSVFSNNYLAWFQQKPGQSPKRLIYSASTLASGVPSRFSGSGSGTDFTLTISSLQPEDFATYYCLGSYACSSADCYVFGTGTKVTVLG
chain 2: DIQMTQSPSSLSASVGDRVTITCQASQSINDYLAWYQQKPGKAPKLLIYKASTLASGVPSRFSGSGSGTDFTLTISSLQPEDFATYYCQAAYIITDIDNVFGTGTKVTVLGGGGGSGGGGSGGGGSGGGGSQVQLQESGPGLVKPSETLSLTCKVSGFSFSSGYDMCWIRQPPGKGLEWIGCVVAGSVDITYYASWAKGRVTISVDSSKNQFSLKLSSVTAADTAVYYCARKDAYSDAFNLWGQGTLVTVSSGGGGSGGGGSEVQLVESGGGLVQPGGSLRLSCAASGFSLSSYDMSWVRQAPGKGLAWIGASYASGPTYYASWAKGRFTISRDNSKNTVYLQMNSLRAEDTATYFCARGGWTGTSHSNIWGQGTLVTVSSGGGSGGGSEVQLVESGGGLVQPGGSLRLSCAASGFSFSSSYWICWVRQAPGKCLEWVGCVFTGDGTTYYASWAKGRFTISRDNSKNTVYLQMNSLRAEDTATYFCARPVSVYYYGMDLWGQGTLVTVSS
Take B5: the “IC50, NFAT reporter, CHO-PD-L1 (A2 clone) cells” value in [1] turned out to be 31.5 nM. Also, in test [1], the “IC50, NFAT reporter, HCC1954 cells” value was 95.4 nM. The “rel. max. activation vs PRO1497, NFAT reporter, HCC1954 cells” value in test [1] amounted to 28%. The “rel. max. activation vs PRO1497 on HCC1954, NFAT reporter, CHO-PD-L1 (A2 clone) cells” value in [1] was found to be 60%. In addition, the Kd in test [2] was determined as 0.848 nM; in the test with human serum albumin, 0.797 nM; with mouse serum albumin it was 17.3 nM; in test [4], 14.3 nM; in [5] it was 380 nM; in [9], 18.3 nM. Besides, the koff in test [2] came out at 0.000388 s⁻¹; with human serum albumin, 0.000134 s⁻¹; with mouse serum albumin it was 0.00116 s⁻¹; in [4] it was 0.000345 s⁻¹; in test [11] it was 0.00752 s⁻¹. Moreover, the kon in test [2] was 458000 M⁻¹ s⁻¹; in the test with human serum albumin it was 168000 M⁻¹ s⁻¹; with mouse serum albumin, 67000 M⁻¹ s⁻¹; in test [4], 24100 M⁻¹ s⁻¹; in test [10], 197000 M⁻¹ s⁻¹. Further, the binding result in test [3] is “no binding (tested: 90 nM highest concentration)”. For the same molecule, in test [6], the KD1 is 38.2 nM. For the same molecule, the kd2 in test [6] is 0.00533 s⁻¹. Also, the half-maximal inhibitory concentration (IC50) worked out at 254 µg/mL in [7] and 51.9 µg/mL in test [8].
